We go through four substances from PMC2115537.

The term pKd denotes the negative decadic logarithm of the Kd, by convention in mol/L. Low values mean a high Kd, high ones a low Kd.

pKd: −log10 of the molar value.

In this test the target is F-actin (rabbit skeletal muscle actin filaments) (rabbit) (UniProt P68135). Put plainly: co-sedimentation.

Take “40-kD NH2-terminal/middle fragment of synapsin I (domain or fragment)”: the pKd was 5.89. The same measure, in the same setting: the same measure for “phosphorylated 51/54-kD middle/tail fragment of synapsin I (domain or fragment)”: 5.77; for “dephosphorylated 51/54-kD middle/tail fragment of synapsin I (domain or fragment)”: 6.22. In the case of “29-kD NH2-terminal fragment of synapsin I (domain or fragment)”, the initial Kd (bivalent cooperativity model) is 168 µM.
